B1: CCND2 (parent)
chain: YFKCVQKDIQPYMRRMVATWMLEV
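Note: lentivirally expressed fusions sorted by FACS into six bins by GFP to DsRed ratio, PSI derived from sequencing read proportions per bin multiplied by bin number.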

Variants of: B1
Assay: protein stability index of a GFP-peptide fusion (GPS, HEK-293T) (PSI 1-6); higher = more stable
Settings: c terminus: a fixed tail appended
With YFKCVQKDIQPYMRRMVATWMLEG the protein stability index was 2.9.
Variant YFKCVQKDIQPYMRRMVATWMLEA has a protein stability index of 2.41.
With YFKCVQKDIQPYMRRMVATWMLEQ the protein stability index was 2.5.
YFKCVQKDIQPYMRRMVATWMLEY gave a protein stability index of 2.06.
For YFKCVQKDIQPYMRRMVATWMLET, the protein stability index was 1.9.
For YFKCVQKDIQPYMRRMVATWMLEM, the protein stability index was 2.09.
Work on YFKCVQKDIQPYMYRMVATWMLEV yielded a protein stability index of 3.2.
YFKCVQKDIQPYMGRMVATWMLEV showed a protein stability index of 2.28.
With YFKCVQKDIQPYMCRMVATWMLEV the protein stability index was 2.77.
In the case of YFKCVQKDIQPYMVRMVATWMLEV, the protein stability index is reported as 2.55.
YFKCVQKDIQPYMPRMVATWMLEV showed a protein stability index of 3.71.
YFKCVQKDIQPYMWRMVATWMLEV showed a protein stability index of 1.74.
In the case of YFKCVQKDIQPYMLRMVATWMLEV, the protein stability index is reported as 4.22.
With YFKCVQKDIQPYMSRMVATWMLEV the protein stability index was 3.39.
Variant YFKCVQKDIQPYMKRMVATWMLEV has a protein stability index of 1.44.
YFKCVQKDIQPYMERMVATWMLEV gave a protein stability index of 2.24.
For YFKCVQKDILPYMRRMVATWMLEV, the protein stability index was 2.64.
For YFKCVQKDIDPYMRRMVATWMLEV, the protein stability index was 2.77.
Variant YFKCVQKDICPYMRRMVATWMLEV has a protein stability index of 3.12.
Variant YFKCVQKDIMPYMRRMVATWMLEV has a protein stability index of 2.06.
YFKCVQKDIVPYMRRMVATWMLEV showed a protein stability index of 2.5.
For YFKCVQKDIYPYMRRMVATWMLEV, the protein stability index was 3.78.
Variant YFKCVQKDIPPYMRRMVATWMLEV has a protein stability index of 3.81.
YFKCVQKDISPYMRRMVATWMLEV gave a protein stability index of 3.22.
With YFKCVQKDIQHYMRRMVATWMLEV the protein stability index was 4.06.
For YFKCVQKDIQFYMRRMVATWMLEV, the protein stability index was 3.77.
With YFKCVQKDIQEYMRRMVATWMLEV the protein stability index was 2.85.
Work on YFKCVQKDIQWYMRRMVATWMLEV yielded a protein stability index of 3.21.
For YFKCVQKDIQKYMRRMVATWMLEV, the protein stability index was 2.82.
Variant YFKCVQKDIQIYMRRMVATWMLEV has a protein stability index of 2.9.
For YFKCVQKDIQSYMRRMVATWMLEV, the protein stability index was 2.5.
Work on YFKCVQKDIQNYMRRMVATWMLEV yielded a protein stability index of 2.54.
With YFKCVQKDIQYYMRRMVATWMLEV the protein stability index was 2.74.
YFKCVQKDFQPYMRRMVATWMLEV showed a protein stability index of 2.47.
Variant YFKCVQKDRQPYMRRMVATWMLEV has a protein stability index of 1.77.
In the case of YFKCVQKDGQPYMRRMVATWMLEV, the protein stability index is reported as 3.25.
Work on YFKCVQKDMQPYMRRMVATWMLEV yielded a protein stability index of 3.79.
Variant YFKCVQKDKQPYMRRMVATWMLEV has a protein stability index of 1.52.
With YFKCVQKDVQPYMRRMVATWMLEV the protein stability index was 1.06.
For YFKCVQKDHQPYMRRMVATWMLEV, the protein stability index was 2.78.
For YFKCVQKDIQPYMRRMVAYWMLEV, the protein stability index was 3.88.
YFKCVQKDIQPYMRRMVANWMLEV showed a protein stability index of 3.9.
YFKCVQKDIQPYMRRMVAFWMLEV showed a protein stability index of 2.85.
YFKCVQKDIQPYMRRMVADWMLEV showed a protein stability index of 1.97.
With YFKCVQKDIQPYMRRMVASWMLEV the protein stability index was 2.83.
For YFKCVQKDIQPYMRRMVAKWMLEV, the protein stability index was 3.
Variant YFKCVQKDIQPYMRRMVAEWMLEV has a protein stability index of 1.44.
Work on YFKCVQKDIQPYMRRMVATWMFEV yielded a protein stability index of 4.78.
For YFKCVQKDIQPYMRRMVATWMNEV, the protein stability index was 1.65.
YFKCVQKDIQPYMRRMVATWMSEV gave a protein stability index of 2.72.
For YFKCVQKDIQPYMRRMVATWMTEV, the protein stability index was 3.
YFKCVQKDIQPYMRRMVATWMQEV gave a protein stability index of 1.96.
In the case of YFKCVQKDIQPYMRRMVATWMHEV, the protein stability index is reported as 1.59.
With YFKCVQKDIQPYMRRMVATWMDEV the protein stability index was 1.89.
YFKCVQKDIQPYMRRMVATWMVEV gave a protein stability index of 2.94.
YFKCVQKDIQPYMRRMVATWMKEV showed a protein stability index of 2.34.
YFKCVQKDIQPYMRRMVATWMAEV showed a protein stability index of 3.01.
Variant YFKCVQKDIQPYMRNMVATWMLEV has a protein stability index of 3.95.
In the case of YFKCVQKDIQPYMRVMVATWMLEV, the protein stability index is reported as 3.01.
With YFKCVQKDIQPYMREMVATWMLEV the protein stability index was 3.42.
YFKCVQKDIQPYMRIMVATWMLEV showed a protein stability index of 2.75.
With YFKCVQKDIQPYMRAMVATWMLEV the protein stability index was 1.77.
With YFKCVQKDIQPYMRRMVFTWMLEV the protein stability index was 3.1.
YFKCVQKDIQPYMRRMVETWMLEV showed a protein stability index of 3.2.
Work on YFKCVQKDIQPYMRRMVLTWMLEV yielded a protein stability index of 3.85.
For YFKCVQKDIQPYMRRMVDTWMLEV, the protein stability index was 2.37.
With YFKCVQKDIQPYMRRMVYTWMLEV the protein stability index was 4.28.
YFKCVQKDIQPYMRRMVATWMLDV gave a protein stability index of 2.08.
In the case of YFKCVQKDIQPYMRRMVATWMLCV, the protein stability index is reported as 2.61.
Variant YFKCVQKDIQPYMRRMVATWMLAV has a protein stability index of 1.78.
Variant YFKCVQKDIQPYMRRMVATWMLLV has a protein stability index of 3.11.
In the case of YFKCVQKDIQPYMRRMVATWMLYV, the protein stability index is reported as 3.34.
In the case of YFKCVQKDIQPYMRRMVATWMLQV, the protein stability index is reported as 2.13.
In the case of YFKCVQKDIQPYMRRMVATWMLNV, the protein stability index is reported as 2.39.
For YFKCVQKDIQPYMRRMVATWMLSV, the protein stability index was 3.08.
With YFKCVQKDIQPYMRRMVATWMLGV the protein stability index was 3.51.
In the case of YFKCVQKDIQPYMRRMVATWMLWV, the protein stability index is reported as 3.1.
YFKCVQKDIQPYMRRMVATWMLHV showed a protein stability index of 2.28.
For YYKCVQKDIQPYMRRMVATWMLEV, the protein stability index was 2.68.
With YGKCVQKDIQPYMRRMVATWMLEV the protein stability index was 3.84.
Variant YLKCVQKDIQPYMRRMVATWMLEV has a protein stability index of 2.85.
For YCKCVQKDIQPYMRRMVATWMLEV, the protein stability index was 2.61.
In the case of YAKCVQKDIQPYMRRMVATWMLEV, the protein stability index is reported as 2.97.
YRKCVQKDIQPYMRRMVATWMLEV gave a protein stability index of 2.33.
In the case of YMKCVQKDIQPYMRRMVATWMLEV, the protein stability index is reported as 1.89.
Variant YSKCVQKDIQPYMRRMVATWMLEV has a protein stability index of 3.5.
With YWKCVQKDIQPYMRRMVATWMLEV the protein stability index was 2.75.
With YFKCVQKDIQPYMRRMVATWCLEV the protein stability index was 3.87.
With YFKCVQKDIQPYMRRMVATWFLEV the protein stability index was 1.96.
In the case of YFKCVQKDIQPYMRRMVATWSLEV, the protein stability index is reported as 3.49.
YFKCVQKDIQPYMRRMVATWELEV gave a protein stability index of 2.72.
For YFKCVQKDIQPYMRRMVATWNLEV, the protein stability index was 2.54.
With YFKCVQKDIQPYMRRMVATWALEV the protein stability index was 1.67.
Work on YFKCVQKDIQPYMRRMVATWGLEV yielded a protein stability index of 2.52.

From the supplement of paper PMC10567573
